Measured values published in patent US20250163140A1.
Where a chain is given by its changes, count along the chain named.

B1: antibody D105N_G2_YTE (antibody)
heavy: QVQLVQSGAEVKKPGASVKVSCKASGYTFTNHYMHWVRQAPGQGLEWMGIINPISGSTSNAQKFQGRVTMTRDTSTSTVYMELSSLRSEDTAVYYCARDIVDAFNFWGQGTMVTVSSASTKGPSVFPLAPCSRSTSESTAALGCLVKDYFPEPVTVSWNSGALTSGVHTFPAVLQSSGLYSLSSVVTVPSSNFGTQTYTCNVDHKPSNTKVDKTVERKCCVECPPCPAPPVAGPSVFLFPPKPKDTLYITREPEVTCVVVDVSHEDPEVQFNWYVDGVEVHNAKTKPREEQFNSTFRVVSVLTVVHQDWLNGKEYKCKVSNKGLPAPIEKTISKTKGQPREPQVYTLPPSREEMTKNQVSLTCLVKGFYPSDIAVEWESNGQPENNYKTTPPMLDSDGSFFLYSKLTVDKSRWQQGNVFSCSVMHEALHNHYTQKSLSLSPGK
light: AIQLTQSPSSLSASVGDRVTITCRASQGISSALVWYQQKPGKAPKLLIYDASSLESGVPSRFSGSGSGTDFTLTISSLQPEDFATYYCQQFNDYFTFGPGTKVDIK
B2: antibody I100H_IgG4PE_R409K_LS (antibody)
heavy: QVQLVQSGAEVKKPGASVKVSCKASGYTFTNHYMHWVRQAPGQGLEWMGIINPISGSTSNAQKFQGRVTMTRDTSTSTVYMELSSLRSEDTAVYYCARDHVDAFDFWGQGTMVTVSSASTKGPSVFPLAPCSRSTSESTAALGCLVKDYFPEPVTVSWNSGALTSGVHTFPAVLQSSGLYSLSSVVTVPSSSLGTKTYTCNVDHKPSNTKVDKRVESKYGPPCPPCPAPEFEGGPSVFLFPPKPKDTLMISRTPEVTCVVVDVSQEDPEVQFNWYVDGVEVHNAKTKPREEQFNSTYRVVSVLTVLHQDWLNGKEYKCKVSNKGLPSSIEKTISKAKGQPREPQVYTLPPSQEEMTKNQVSLTCLVKGFYPSDIAVEWESNGQPENNYKTTPPVLDSDGSFFLYSKLTVDKSRWQEGNVFSCSVLHEALHSHYTQKSLSLSLGK
light: B1 light
B3: antibody I100Y_G2_LS (antibody)
heavy: B1 heavy with I100Y, N105D, Y248M, T250S, E252T, M424L, N430S
light: B1 light
B4: antibody I100H_G2_LS (antibody)
heavy: B1 heavy with I100H, N105D, Y248M, T250S, E252T, M424L, N430S
light: B1 light
B5: antibody I100A_G2_YTE (antibody)
heavy: B1 heavy with I100A, N105D
light: B1 light
B6: antibody D105N_G2_LS (antibody)
heavy: B1 heavy with Y248M, T250S, E252T, M424L, N430S
light: B1 light
B7: antibody I100H_G2_YTE (antibody)
heavy: B1 heavy with I100H, N105D
light: B1 light
B8: antibody I100Y_G2_YTE (antibody)
heavy: B1 heavy with I100Y, N105D
light: B1 light
B9: antibody I100Y_IgG4PE_R409K_LS (antibody)
heavy: B2 heavy with H100Y
light: B1 light
B10: antibody D105N_IgG4PE_R409K_LS (antibody)
heavy: B2 heavy with H100I, D105N
light: B1 light
B11: antibody I100A_G2_LS (antibody)
heavy: B1 heavy with I100A, N105D, Y248M, T250S, E252T, M424L, N430S
light: B1 light
B12: antibody I100A_IgG4PE_R409K_LS (antibody)
heavy: B2 heavy with H100A
light: B1 light

target: Recombinant Human FGF-23 (R&D Systems, Cat No. 2604-FG-025/CF) (human) (UniProt Q9GZV9); assay: cell-based or functional assay
Sequence (Q9GZV9 25-251 limits assumed): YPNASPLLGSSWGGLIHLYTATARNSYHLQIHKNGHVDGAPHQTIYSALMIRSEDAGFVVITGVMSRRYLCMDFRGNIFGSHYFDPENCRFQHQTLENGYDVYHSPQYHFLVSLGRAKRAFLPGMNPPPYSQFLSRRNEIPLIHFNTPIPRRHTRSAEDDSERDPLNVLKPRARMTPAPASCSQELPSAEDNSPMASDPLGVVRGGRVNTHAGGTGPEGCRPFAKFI

Q: How did the FGF23 neutralizing activity IC50 (luciferase promoter assay) turn out when B1 was run?
A: 12.4 ng/mL

Q: With B2 as the binder, how does the FGF23 neutralizing activity IC50 (luciferase promoter assay) read?
A: 13.1 ng/mL

Q: With B3 as the binder, how does the FGF23 neutralizing activity IC50 (luciferase promoter assay) read?
A: 4.4 ng/mL

Q: B4 was tested. Which FGF23 neutralizing activity IC50 (luciferase promoter assay) did it give?
A: 13 ng/mL

Q: How did the FGF23 neutralizing activity IC50 (luciferase promoter assay) turn out when B5 was run?
A: 5 ng/mL

Q: For B6, which FGF23 neutralizing activity IC50 (luciferase promoter assay) is on record?
A: 12.4 ng/mL

Q: B7 was tested. Which FGF23 neutralizing activity IC50 (luciferase promoter assay) did it give?
A: 8.9 ng/mL

Q: For B8, which FGF23 neutralizing activity IC50 (luciferase promoter assay) is on record?
A: 2.9 ng/mL

Q: How did the FGF23 neutralizing activity IC50 (luciferase promoter assay) turn out when B9 was run?
A: 2.9 ng/mL

Q: For B10, which FGF23 neutralizing activity IC50 (luciferase promoter assay) is on record?
A: 11.7 ng/mL

Q: For B11, which FGF23 neutralizing activity IC50 (luciferase promoter assay) is on record?
A: 2.4 ng/mL

Q: With B12 as the binder, how does the FGF23 neutralizing activity IC50 (luciferase promoter assay) read?
A: 6.6 ng/mL
